The record followed here is US20220251236A1 (Boehringer Ingelheim, published 2022).

Experiment [1] has as its target T1, FLAG-tagged human DLL4 full length (human, UniProt Q9NR61 1-685).
T1 construct: also called human DLL4 on HEK293 cells
In words: flow cytometry on HEK293 cells expressing human DLL4 (HEK293-huDLL4), PE anti-human secondary, control: secondary antibody only. The method, then: (§1) Bound molecules were detected with PE-conjugated anti-human secondary antibody (Sigma-Aldrich, #P8047). As negative control, cells were incubated with secondary antibody only. The samples were measured by flow-cytometry.
(Flow cytometry measures light scatter and fluorescence of single cells or particles in a stream.)

Experiment [2] has as its target T2, trypsin inhibitor from glycine max soybean (Glycine max (soybean)).
T2 construct: also called Tryp
In words: SPR (Biacore T200), trypsin inhibitor on CM5 chip, sample at 1 µM. The text has this: To prepare the surface for the non-specific binding experiment, chicken egg white lysozyme and trypsin inhibitor from glycine max soybean were coupled manually to a series S CM5 chip with the surface density of 3000-5000 RU using the amine coupling kit according to the manufacture instructions.

Experiment [3] addresses T3, FLAG-tagged human DLL1 full length (human, UniProt O00548 1-723).
T3 construct: also called human DLL1 on HEK293 cells
T3 sequence: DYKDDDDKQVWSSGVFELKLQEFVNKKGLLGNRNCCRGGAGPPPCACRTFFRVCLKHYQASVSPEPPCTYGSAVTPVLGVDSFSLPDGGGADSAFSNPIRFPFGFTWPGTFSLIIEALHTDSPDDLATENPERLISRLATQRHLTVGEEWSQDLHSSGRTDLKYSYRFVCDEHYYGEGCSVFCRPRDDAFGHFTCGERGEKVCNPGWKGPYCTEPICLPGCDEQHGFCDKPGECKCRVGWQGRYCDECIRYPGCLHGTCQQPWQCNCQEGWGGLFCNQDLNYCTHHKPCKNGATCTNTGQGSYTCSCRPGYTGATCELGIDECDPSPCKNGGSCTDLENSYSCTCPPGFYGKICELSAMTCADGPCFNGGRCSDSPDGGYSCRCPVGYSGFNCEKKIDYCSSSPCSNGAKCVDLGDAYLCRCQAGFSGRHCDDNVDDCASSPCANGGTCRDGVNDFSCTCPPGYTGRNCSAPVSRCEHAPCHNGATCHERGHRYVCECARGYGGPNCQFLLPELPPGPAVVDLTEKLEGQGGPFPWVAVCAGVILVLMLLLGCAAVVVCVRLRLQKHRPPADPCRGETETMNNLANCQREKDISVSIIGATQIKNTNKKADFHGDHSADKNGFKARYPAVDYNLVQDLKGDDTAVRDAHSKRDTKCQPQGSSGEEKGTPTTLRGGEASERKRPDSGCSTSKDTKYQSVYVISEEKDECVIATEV
In words: flow cytometry on HEK293 cells expressing human DLL1 (HEK293-huDLL1), PE anti-human secondary, control: secondary antibody only. The method, then: as §1

Another experiment deals with T4, Human DLL3-His (human, UniProt Q9NYJ7 27-492).
T4 construct: also called huDLL3-His; hu DLL3
T4 sequence: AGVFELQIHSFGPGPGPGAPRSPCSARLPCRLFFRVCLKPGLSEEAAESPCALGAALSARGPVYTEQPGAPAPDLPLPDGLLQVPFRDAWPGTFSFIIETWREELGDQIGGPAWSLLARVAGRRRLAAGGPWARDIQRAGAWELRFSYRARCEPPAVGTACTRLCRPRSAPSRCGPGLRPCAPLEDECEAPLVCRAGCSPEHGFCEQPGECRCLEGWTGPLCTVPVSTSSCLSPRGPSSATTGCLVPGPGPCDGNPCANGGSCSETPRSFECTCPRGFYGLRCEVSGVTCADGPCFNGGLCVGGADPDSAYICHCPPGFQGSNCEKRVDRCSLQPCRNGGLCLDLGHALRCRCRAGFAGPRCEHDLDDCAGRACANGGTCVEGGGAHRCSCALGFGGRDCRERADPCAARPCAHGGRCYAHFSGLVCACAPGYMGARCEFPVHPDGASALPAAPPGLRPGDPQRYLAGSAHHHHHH
In words: SPR (ProteOn XPR36), bispecific captured on protein A/G, hu DLL3 as analyte, Example 4B. The method, boiled down:
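Bispecific constructs captured on protein A/G for 200 s at 30 μl/min, baseline stabilized with PBS-T-EDTA. Human DLL3 analyte injected 300 s at 30 μl/min; dissociation followed for 1800 s.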

T1 sequence (Q9NR61 other isoform, or with tags, fused parts or gaps limits assumed): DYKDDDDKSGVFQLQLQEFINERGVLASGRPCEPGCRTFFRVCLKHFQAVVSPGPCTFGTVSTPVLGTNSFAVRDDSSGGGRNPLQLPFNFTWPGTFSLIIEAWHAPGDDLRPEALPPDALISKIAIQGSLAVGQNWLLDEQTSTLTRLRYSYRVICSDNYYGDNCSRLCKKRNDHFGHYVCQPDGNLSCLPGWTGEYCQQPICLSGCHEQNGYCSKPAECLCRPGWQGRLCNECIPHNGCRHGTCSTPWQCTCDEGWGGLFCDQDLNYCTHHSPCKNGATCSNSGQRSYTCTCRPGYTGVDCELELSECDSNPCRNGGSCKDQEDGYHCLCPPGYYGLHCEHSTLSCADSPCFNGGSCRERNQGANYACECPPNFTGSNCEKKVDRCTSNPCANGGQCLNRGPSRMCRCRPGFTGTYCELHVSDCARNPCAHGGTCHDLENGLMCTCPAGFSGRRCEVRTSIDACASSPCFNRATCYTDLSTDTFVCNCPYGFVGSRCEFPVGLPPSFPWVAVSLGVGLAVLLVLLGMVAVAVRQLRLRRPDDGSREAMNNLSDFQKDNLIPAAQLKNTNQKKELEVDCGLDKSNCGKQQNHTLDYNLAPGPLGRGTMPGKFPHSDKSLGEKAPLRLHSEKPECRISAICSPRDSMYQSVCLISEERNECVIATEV
T2 sequence (P01070 25-205): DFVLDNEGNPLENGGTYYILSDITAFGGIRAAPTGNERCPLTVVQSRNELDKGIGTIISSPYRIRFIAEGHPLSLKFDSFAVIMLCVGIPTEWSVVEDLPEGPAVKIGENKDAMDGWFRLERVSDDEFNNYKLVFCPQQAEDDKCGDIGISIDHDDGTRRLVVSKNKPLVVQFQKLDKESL

B1: DLL3#2/CD3#1 (bispecific antibody, human IgG1, kappa, lambda, L234A L235A)
chain 1: DIQMTQSPSAMSASVGDRVTITCRASQGISNYLAWFQQKPGKVPEPLIYAASSLQSGVPSRFSGSGSVTEFTLTISSLQPEDFATYYCLQHNSSPYTFGQGTKLEIKRTVAAPSVFIFPPSDEQLKSGTASVVCLLNNFYPREAKVQWKVDNALQSGNSQESVTEQDSKDSTYSLSSTLTLSKADYEKHKVYACEVTHQGLSSPVTKSFNRGECGGGGSEGKSSGSGSESKSTEGKSSGSGSESKSTGGGGSQVQLVQSGAEVKKPGASVKVSCKASGYTFTSYYMHWVRQAPGQGLEWMGIINPSGGSTSYAQKFQGRVTMTRDTSTSTVYMELSSLRSEDTAVYYCARGEAVGGNYYYYGMDVWGQGTTVTVSSASTKGPSVFPLAPSSKSTSGGTAALGCLVKDYFPEPVTVSWNSGALTSGVHTFPAVLQSSGLYSLSSVVTVPSSSLGTQTYICNVNHKPSNTKVDKRVEPKSCDKTHTCPPCPAPEAAGGPSVFLFPPKPKDTLMISRTPEVTCVVVDVSHEDPEVKFNWYVDGVEVHNAKTKPREEQYNSTYRVVSVLTVLHQDWLNGKEYKCKVSNKALPAPIEKTISKAKGQPREPQVYTLPPSREEMTKNQVSLWCLVKGFYPSDIAVEWESNGQPENNYKTTPPVLDSDGSFFLYSKLTVDKSRWQQGNVFSCSVMHEALHNHYTQKSLSLSPG
chain 2: EAVVTQEPSLTVSPGGTVTLTCRSSTGAVTTSNYANWVQEKPGQLPRGLIGGTNKRAPWVPARFSGSLLGGKAALTLSGAQPEDEAEYFCALWYSNLWVFGGGTKLTVLGQPKAAPSVTLFPPSSEELQANKATLVCLISDFYPGAVKVAWKADGSPVNTGVETTTPSKQSNNKYAASSYLSLTPEQWKSHRSYSCQVTHEGSTVEKTVAPAECSGGGGSEGKSSGSGSESKSTEGKSSGSGSESKSTGGGGSEVQLVESGGGLVQPGGSLKLSCAASGFTFNTYAMNWVRQAPGKGLEWVARIRSKYNNYATYYADSVKDRFTISRDDSKNTAYLQMNNLKTEDTAVYYCVRHGNFGNSYVSWFAYWGQGTLVTVSAASTKGPSVFPLAPSSKSTSGGTAALGCLVKDYFPEPVTVSWNSGALTSGVHTFPAVLQSSGLYSLSSVVTVPSSSLGTQTYICNVNHKPSNTKVDKRVEPKSCDKTHTCPPCPAPEAAGGPSVFLFPPKPKDTLMISRTPEVTCVVVDVSHEDPEVKFNWYVDGVEVHNAKTKPREEQYNSTYRVVSVLTVLHQDWLNGKEYKCKVSNKALPAPIEKTISKAKGQPREPQVYTLPPSREEMTKNQVSLSCAVKGFYPSDIAVEWESNGQPENNYKTTPPVLDSDGSFFLVSKLTVDKSRWQQGNVFSCSVMHEALHNRFTQKSLSLSPG
notes: Heterodimer of one DLL3 chain and one CD3 chain (scFab-Fc, knob-in-hole)
What is called Kd is the free concentration of one partner at which half of the binding sites on the other are occupied at equilibrium, for simple one-to-one binding. For the molecule B1, the binding result in experiment [1] and in experiment [3] was “no binding (tested: 1.6 nM)” throughout. Also, the “Non-specific binding (RU)” value in experiment [2] turned out to be 2 RU. This molecule also had a Kd with Human DLL3-His of 0.091 nM.

B2: DLL3#3/CD3#1 (bispecific antibody, human IgG1, kappa, lambda, L234A L235A)
chain 1: DIQMTQSPSAMSASVGDRVTITCRASQGISNYLVWFQQKPGKAPKRLIYAVSSLYSGVPSRFSGSGSGTEFTLTISSLQPEDFATYYCLQHDSYPYTFGQGTKLEIKRTVAAPSVFIFPPSDEQLKSGTASVVCLLNNFYPREAKVQWKVDNALQSGNSQESVTEQDSKDSTYSLSSTLTLSKADYEKHKVYACEVTHQGLSSPVTKSFNRGECGGGGSEGKSSGSGSESKSTEGKSSGSGSESKSTGGGGSQVQLVQSGAEVKKPGASVKVSCKASGYTFTSYYVHWVRQAPGQGLEWMVIINPGGGTTSYAQKFLGRVTMTRDTSTNTVYMELKSLRSEDTAVYYCARGEAVTGNYFYYGMDVWGQGTTVTVSSASTKGPSVFPLAPSSKSTSGGTAALGCLVKDYFPEPVTVSWNSGALTSGVHTFPAVLQSSGLYSLSSVVTVPSSSLGTQTYICNVNHKPSNTKVDKRVEPKSCDKTHTCPPCPAPEAAGGPSVFLFPPKPKDTLMISRTPEVTCVVVDVSHEDPEVKFNWYVDGVEVHNAKTKPREEQYNSTYRVVSVLTVLHQDWLNGKEYKCKVSNKALPAPIEKTISKAKGQPREPQVYTLPPSREEMTKNQVSLWCLVKGFYPSDIAVEWESNGQPENNYKTTPPVLDSDGSFFLYSKLTVDKSRWQQGNVFSCSVMHEALHNHYTQKSLSLSPG
chain 2: EAVVTQEPSLTVSPGGTVTLTCRSSTGAVTTSNYANWVQEKPGQLPRGLIGGTNKRAPWVPARFSGSLLGGKAALTLSGAQPEDEAEYFCALWYSNLWVFGGGTKLTVLGQPKAAPSVTLFPPSSEELQANKATLVCLISDFYPGAVKVAWKADGSPVNTGVETTTPSKQSNNKYAASSYLSLTPEQWKSHRSYSCQVTHEGSTVEKTVAPAECSGGGGSEGKSSGSGSESKSTEGKSSGSGSESKSTGGGGSEVQLVESGGGLVQPGGSLKLSCAASGFTFNTYAMNWVRQAPGKGLEWVARIRSKYNNYATYYADSVKDRFTISRDDSKNTAYLQMNNLKTEDTAVYYCVRHGNFGNSYVSWFAYWGQGTLVTVSAASTKGPSVFPLAPSSKSTSGGTAALGCLVKDYFPEPVTVSWNSGALTSGVHTFPAVLQSSGLYSLSSVVTVPSSSLGTQTYICNVNHKPSNTKVDKRVEPKSCDKTHTCPPCPAPEAAGGPSVFLFPPKPKDTLMISRTPEVTCVVVDVSHEDPEVKFNWYVDGVEVHNAKTKPREEQYNSTYRVVSVLTVLHQDWLNGKEYKCKVSNKALPAPIEKTISKAKGQPREPQVYTLPPSREEMTKNQVSLSCAVKGFYPSDIAVEWESNGQPENNYKTTPPVLDSDGSFFLVSKLTVDKSRWQQGNVFSCSVMHEALHNRFTQKSLSLSPG
notes: as for B1
For the molecule B2, the binding result in experiment [1] and in experiment [3] was “no binding (tested: 1.6 nM)” each time. In addition, in experiment [2], the “Non-specific binding (RU)” value was found to be 85 RU. Further, binding with Human DLL3-His was put at a Kd of 0.075 nM.

B3: DLL3#3/CD3#2 (bispecific antibody, human IgG1, kappa, lambda, L234A L235A)
chain 1: DIQMTQSPSAMSASVGDRVTITCRASQGISNYLVWFQQKPGKAPKRLIYAVSSLYSGVPSRFSGSGSGTEFTLTISSLQPEDFATYYCLQHDSYPYTFGQGTKLEIKRTVAAPSVFIFPPSDEQLKSGTASVVCLLNNFYPREAKVQWKVDNALQSGNSQESVTEQDSKDSTYSLSSTLTLSKADYEKHKVYACEVTHQGLSSPVTKSFNRGECGGGGSEGKSSGSGSESKSTEGKSSGSGSESKSTGGGGSQVQLVQSGAEVKKPGASVKVSCKASGYTFTSYYVHWVRQAPGQGLEWMVIINPGGGTTSYAQKFLGRVTMTRDTSTNTVYMELKSLRSEDTAVYYCARGEAVTGNYFYYGMDVWGQGTTVTVSSASTKGPSVFPLAPSSKSTSGGTAALGCLVKDYFPEPVTVSWNSGALTSGVHTFPAVLQSSGLYSLSSVVTVPSSSLGTQTYICNVNHKPSNTKVDKRVEPKSCDKTHTCPPCPAPEAAGGPSVFLFPPKPKDTLMISRTPEVTCVVVDVSHEDPEVKFNWYVDGVEVHNAKTKPREEQYNSTYRVVSVLTVLHQDWLNGKEYKCKVSNKALPAPIEKTISKAKGQPREPQVYTLPPSREEMTKNQVSLWCLVKGFYPSDIAVEWESNGQPENNYKTTPPVLDSDGSFFLYSKLTVDKSRWQQGNVFSCSVMHEALHNHYTQKSLSLSPG
chain 2: EAVVTQEPSLTVSPGGTVTLTCRSSTGAVTTSNYANWVQEKPGQLPRGLIGGTNKRAPWVPARFSGSLLGGKAALTLSGAQPEDEAEYFCALWYSNLWVFGGGTKLTVLGQPKAAPSVTLFPPSSEELQANKATLVCLISDFYPGAVKVAWKADGSPVNTGVETTTPSKQSNNKYAASSYLSLTPEQWKSHRSYSCQVTHEGSTVEKTVAPAECSGGGGSEGKSSGSGSESKSTEGKSSGSGSESKSTGGGGSEVQLVESGGGLVQPGGSLKLSCAASGFTFNTYAMNWVRQAPGKGLEWVARIRSKYINYATYYADSVKDRFTISRDDSKNTAYLQMNNLKTEDTAVYYCVRHGNFGNSYVSWFAYWGQGTLVTVSAASTKGPSVFPLAPSSKSTSGGTAALGCLVKDYFPEPVTVSWNSGALTSGVHTFPAVLQSSGLYSLSSVVTVPSSSLGTQTYICNVNHKPSNTKVDKRVEPKSCDKTHTCPPCPAPEAAGGPSVFLFPPKPKDTLMISRTPEVTCVVVDVSHEDPEVKFNWYVDGVEVHNAKTKPREEQYNSTYRVVSVLTVLHQDWLNGKEYKCKVSNKALPAPIEKTISKAKGQPREPQVYTLPPSREEMTKNQVSLSCAVKGFYPSDIAVEWESNGQPENNYKTTPPVLDSDGSFFLVSKLTVDKSRWQQGNVFSCSVMHEALHNRFTQKSLSLSPG
notes: as for B1
Regarding B3, the binding result in experiment [1] and in experiment [3] was “no binding (tested: 1.6 nM)” in each case. Moreover, the “Non-specific binding (RU)” value in experiment [2] was found to be 36 RU. In the experiment with Human DLL3-His, this molecule returned a Kd of 0.12 nM.
